Source: PMC4613530, “Structure-based design and functional studies of novel noroviral 3C protease chimaeras offer insights into substrate specificity” (Biochemical Journal, 2014)

Target: the molecule itself
Experiment: non-reducing PAGE; purified NS6 proteases analysed by non-reducing PAGE; major band at approximately 18 kDa, minor band at approximately 36 kDa taken as the dimer

Row | Protein | binding result
1 | wild-type Southampton virus NS6 protease (enzyme, NS6 protease (3C-like protease), cut product of the ORF1 polyprotein of Southampton virus (human norovirus); also called wtSV NS6; SV NS6) APPTLWSRVTKFGSGWGFWVSPTVFITTTHVIPTSAKEFFGEPLTSIAIHRAGEFTLFRFSKKIRPDLTGMILEEGCPEGTVCSVLIKRDSGELLPLAVRMGAIASMRIQGRLVHGQSGMLLTGANAKGMDLGTIPGDCGAPYVYKRANDWVVCGVHAAATKSGNTVVCAVQASEGETTLE | binds
2 | wild-type murine norovirus NS6 protease (enzyme, NS6 protease (3C-like protease), cut product of the ORF1 polyprotein of murine norovirus 1; expressed flanked by 41 residues of NS5 and 41 residues of NS7 and released by self-cleavage as the 19 kDa mature NS6; its strain may differ at a few residues from the UniProt entry; The tags sit upstream of the NS5 stretch and leave with it on self-excision; also called wtMNV NS6; MNV NS6; not shown: His …) APVSIWSRVVQFGTGWGFWVSGHVFITAKHVAPPKGTEIFGRKPGDFTVTSSGDFLKYYFTSAVRPDIPAMVLENGCQEGVVASVLVKRASGEMLALAVRMGSQAAIKIGSAVVHGQTGMLLTGSNAKAQDLGTIPGDCGCPYVYKKGNTWVVIGVHVAATRSGNTVIAATHGEPTLEALEFQ | binds
